The values below come from US20030009023A1 (US Dept. of Health and Human Services, published 2003).

To fix the notation:
T1: HA-tagged murine Wnt-1 (mouse, UniProt P04426 28-370)
T1 construct: also called pLNCWnt1HA; pLNCW1-HA; not shown: hemagglutinin (HA) tag near the C-terminus
T1 sequence (looked up): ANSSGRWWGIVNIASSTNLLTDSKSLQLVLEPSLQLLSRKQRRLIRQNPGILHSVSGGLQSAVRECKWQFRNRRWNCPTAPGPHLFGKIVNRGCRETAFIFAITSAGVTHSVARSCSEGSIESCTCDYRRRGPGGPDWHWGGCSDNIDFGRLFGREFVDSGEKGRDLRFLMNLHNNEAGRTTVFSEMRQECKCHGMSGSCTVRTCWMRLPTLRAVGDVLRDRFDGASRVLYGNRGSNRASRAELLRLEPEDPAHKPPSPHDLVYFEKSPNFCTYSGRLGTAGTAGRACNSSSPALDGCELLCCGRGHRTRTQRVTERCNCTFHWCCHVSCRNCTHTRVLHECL

T2: HA-tagged mouse Wnt-4 (mouse, UniProt P22724 23-351, limits assumed)
T2 construct: also called pLNCW4-HA; not shown: HA tag
T2 sequence (looked up): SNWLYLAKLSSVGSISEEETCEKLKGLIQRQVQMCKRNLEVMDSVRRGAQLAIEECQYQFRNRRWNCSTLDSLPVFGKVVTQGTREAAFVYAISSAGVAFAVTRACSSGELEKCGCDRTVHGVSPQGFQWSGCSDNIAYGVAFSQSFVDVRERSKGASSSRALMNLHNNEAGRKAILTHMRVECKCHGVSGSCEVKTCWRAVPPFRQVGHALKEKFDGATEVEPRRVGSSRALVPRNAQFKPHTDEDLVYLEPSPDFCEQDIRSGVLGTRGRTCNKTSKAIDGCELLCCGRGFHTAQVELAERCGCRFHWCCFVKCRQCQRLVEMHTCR

T3: HA-tagged mouse Wnt-5B (mouse, UniProt P22726 18-359, limits assumed)
T3 construct: also called pLNCW5B-HA; not shown: HA tag
T3 sequence (looked up): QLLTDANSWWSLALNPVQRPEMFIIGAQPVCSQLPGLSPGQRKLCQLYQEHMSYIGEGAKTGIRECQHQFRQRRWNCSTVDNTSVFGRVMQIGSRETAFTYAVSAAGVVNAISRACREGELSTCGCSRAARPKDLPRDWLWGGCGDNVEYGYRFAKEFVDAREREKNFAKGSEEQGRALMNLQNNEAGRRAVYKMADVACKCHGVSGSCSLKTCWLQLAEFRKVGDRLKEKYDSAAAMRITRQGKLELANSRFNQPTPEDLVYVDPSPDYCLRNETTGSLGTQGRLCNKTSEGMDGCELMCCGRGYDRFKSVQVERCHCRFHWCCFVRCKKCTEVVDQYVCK

T4: HA-tagged mouse Wnt-7B (mouse, UniProt P28047 25-349, limits assumed)
T4 construct: also called pLNCW7B-HA; not shown: HA tag
T4 sequence (looked up): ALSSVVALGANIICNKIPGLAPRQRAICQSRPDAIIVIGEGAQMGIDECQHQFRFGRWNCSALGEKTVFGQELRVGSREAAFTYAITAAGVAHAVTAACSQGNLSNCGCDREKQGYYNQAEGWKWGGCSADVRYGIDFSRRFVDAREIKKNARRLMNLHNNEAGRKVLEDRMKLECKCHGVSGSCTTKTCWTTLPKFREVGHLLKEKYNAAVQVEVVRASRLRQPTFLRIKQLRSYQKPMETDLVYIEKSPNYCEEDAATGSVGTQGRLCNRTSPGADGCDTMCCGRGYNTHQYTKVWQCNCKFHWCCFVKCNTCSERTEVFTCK

T5: HA-tagged mouse Wnt-2 (mouse, UniProt P21552 26-360, limits assumed)
T5 construct: also called pLNCW2-HA; not shown: HA tag
T5 sequence (looked up): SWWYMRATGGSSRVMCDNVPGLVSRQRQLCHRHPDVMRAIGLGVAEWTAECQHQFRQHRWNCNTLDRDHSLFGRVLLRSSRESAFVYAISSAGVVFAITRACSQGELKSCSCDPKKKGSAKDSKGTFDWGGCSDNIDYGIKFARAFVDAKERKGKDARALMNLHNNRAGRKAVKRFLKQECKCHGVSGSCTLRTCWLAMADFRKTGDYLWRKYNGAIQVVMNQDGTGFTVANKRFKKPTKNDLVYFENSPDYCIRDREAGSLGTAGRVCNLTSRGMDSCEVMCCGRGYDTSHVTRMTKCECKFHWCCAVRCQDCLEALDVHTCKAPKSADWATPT

T6: HA-tagged mouse Wnt-6 (mouse, UniProt P22727 24-364, limits assumed)
T6 construct: also called pLNCW6-HA; not shown: HA tag
T6 sequence (looked up): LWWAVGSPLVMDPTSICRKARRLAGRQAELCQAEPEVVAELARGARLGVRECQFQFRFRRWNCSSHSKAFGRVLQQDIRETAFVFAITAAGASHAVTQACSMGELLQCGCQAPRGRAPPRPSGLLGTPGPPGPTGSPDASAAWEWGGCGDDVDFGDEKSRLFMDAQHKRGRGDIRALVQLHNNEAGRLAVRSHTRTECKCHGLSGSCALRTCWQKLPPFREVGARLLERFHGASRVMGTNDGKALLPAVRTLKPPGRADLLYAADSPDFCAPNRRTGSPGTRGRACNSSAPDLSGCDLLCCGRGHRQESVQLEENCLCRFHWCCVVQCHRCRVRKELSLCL

T7: HA-tagged mouse Wnt-7A (mouse, UniProt P24383 32-349, limits assumed)
T7 construct: also called pLNCW7A-HA; not shown: HA tag
T7 sequence (looked up): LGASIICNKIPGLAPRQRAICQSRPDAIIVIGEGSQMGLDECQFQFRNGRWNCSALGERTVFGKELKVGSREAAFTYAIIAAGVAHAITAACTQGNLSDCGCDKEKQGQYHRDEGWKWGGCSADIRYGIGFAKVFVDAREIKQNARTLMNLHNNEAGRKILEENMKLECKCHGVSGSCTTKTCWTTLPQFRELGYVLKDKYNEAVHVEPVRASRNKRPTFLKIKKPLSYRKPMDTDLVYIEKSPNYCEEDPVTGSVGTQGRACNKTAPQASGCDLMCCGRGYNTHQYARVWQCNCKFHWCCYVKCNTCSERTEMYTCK

T8: Xwnt-8^myc (Xenopus, UniProt P28026 23-358, limits assumed)
T8 construct: also called myc-tagged XWnt-8
T8 sequence (looked up): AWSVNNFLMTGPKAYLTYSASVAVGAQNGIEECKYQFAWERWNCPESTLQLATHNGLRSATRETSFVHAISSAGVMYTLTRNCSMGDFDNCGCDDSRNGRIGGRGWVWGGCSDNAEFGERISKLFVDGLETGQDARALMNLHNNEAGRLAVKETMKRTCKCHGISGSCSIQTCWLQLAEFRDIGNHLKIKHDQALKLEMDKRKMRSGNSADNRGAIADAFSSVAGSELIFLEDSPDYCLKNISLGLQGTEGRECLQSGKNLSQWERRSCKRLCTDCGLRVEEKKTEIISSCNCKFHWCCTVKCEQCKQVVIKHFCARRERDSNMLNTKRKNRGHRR

B1: bovine Frzb (other)
chain: AACEPVRIPLCKSLPWNMTKMPNHLHHSTQANAILAIEQFEGLLGTHCSPDLLFFLCAMYAPICTIDFQHEPIKPCKSVCERARQGCEPILIKYRHSWPESLACEELPVYDRGVCISPEAIVTADGADFPMDSSNGNCRGASSERCKCKPVRATQKTYFRNNYNYVIRAKVKEIKTKCHDVTAVVEVKEILKASLVNIPRETVNLYTSSGCLCPPLNVNEEYLIMGYEDEERSRLLLVEGSIAEKWKDRLGKKVKRWDMKLRHLGLNTSDSSHSDSTQSQKPGRNSNSRQARN
notes: Full-length bovine Frzb expressed from pcDNA3 (pFrzb) in COS7 cells, or translated in vitro with microsomal membranes, or from injected mRNA; also called Bfrzb; BFrzb
B2: β-lactamase (enzyme)
chain: HPETLVKVKDAEDQLGARVGYIELDLNSGKILESFRPEERFPMMSTFKVLLCGAVLSRVDAGQEQLGRRIHYSQNDLVEYSPVTEKHLTDGMTVRELCSAAITMSDNTAANLLLTTIGGPKELTAFLHNMGDHVTRLDRWEPELNEAIPNDERDTTMPAAMATTLRKLLTGELLTLASRQQLIDWMEADKVAGPLLRSALPAGWFIADKSGAGERGSRGIIAALGPDGKPSRIVVIYTTGSQATMDERNRQIAEIGASLIKHW
notes: also called β-lactamase control
B3: Frzb deletion construct delta CRD (other)
chain: AACEPVVCISPEAIVTADGADFPMDSSNGNCRGASSERCKCKPVRATQKTYFRNNYNYVIRAKVKEIKTKCHDVTAVVEVKEILKASLVNIPRETVNLYTSSGCLCPPLNVNEEYLIMGYEDEERSRLLLVEGSIAEKWKDRLGKKVKRWDMKLRHLGLNTSDSSHSDSTQSQKPGRNSNSRQARN
notes: Made by deleting amino acids 39 to 145 of Frzb; also called CRD deletion; removal of the entire frizzled domain

One experiment concerns the target Xwnt-8 (Xenopus) (UniProt P28026). Description: cell-based or functional assay.
For experiment [1], the target named is T1, HA-tagged murine Wnt-1. The experiment in a line: anti-HA immunoprecipitation of co-transfected COS7 lysates, immunoblot with N374-PEP.
Procedure: (§1) Transfections were performed for 6 hours in serum-free Opti-MEM I® (Life Technologies). Thereafter, cells were incubated for 18 hours in media containing 10% fetal bovine serum. Subsequently, cells were cultured at 37° C. for 24 hours in serum-free Opti-MEM I®. Cells were extracted for 30 minutes on ice with 50 mM Tris-HCl, 150 mM NaCl, 1.0% NP-40, 0.5% Deoxycholic acid and 0.1% SDS and centrifuged at 12,000× g for 5 minutes. Supernatants were saved for immunoprecipitation.
Another experiment deals with T2, HA-tagged mouse Wnt-4. The description is as above.
The target of another experiment is T9, HA-tagged mouse Wnt-3A (mouse, UniProt P27467 19-352, limits assumed).
T9 construct: also called pLNCW3A-HA; not shown: HA tag
The description is as above.

The next experiment addresses T3, HA-tagged mouse Wnt-5B. The experiment is described as above.
Another experiment addresses T4, HA-tagged mouse Wnt-7B. The description is as above.
Another experiment deals with T5, HA-tagged mouse Wnt-2. Described as above.
The target of a further experiment is T6, HA-tagged mouse Wnt-6. Described as above.
For the next experiment, the target named is T7, HA-tagged mouse Wnt-7A. Described as above.
In the experiment “bovine Frzb” the target is B1. Description: co-immunoprecipitation after in vitro cotranslation.
For another experiment, the target named is T8, Xwnt-8^myc. The description is as above.
Experiment [2] concerns the target T1, HA-tagged murine Wnt-1. The experiment in a line: co-immunoprecipitation from lysates of co-transfected COS7 cells.

T9 sequence (P27467 19-352 limits assumed): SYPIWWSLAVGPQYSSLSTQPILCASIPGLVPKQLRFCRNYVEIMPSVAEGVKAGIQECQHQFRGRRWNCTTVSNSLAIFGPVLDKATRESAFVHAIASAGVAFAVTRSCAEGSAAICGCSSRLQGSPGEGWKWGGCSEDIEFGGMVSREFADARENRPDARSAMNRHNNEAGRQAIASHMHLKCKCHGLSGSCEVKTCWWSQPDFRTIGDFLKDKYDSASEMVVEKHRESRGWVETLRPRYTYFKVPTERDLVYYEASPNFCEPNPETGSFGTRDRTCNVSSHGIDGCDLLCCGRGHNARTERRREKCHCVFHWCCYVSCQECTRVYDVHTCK
Procedure for HA-tagged mouse Wnt-2: as §1
Procedure for HA-tagged mouse Wnt-3A: as §1
Procedure for HA-tagged mouse Wnt-4: as §1
Procedure for HA-tagged mouse Wnt-5B: as §1
Procedure for HA-tagged mouse Wnt-6: as §1
Procedure for HA-tagged mouse Wnt-7A: as §1
Procedure for HA-tagged mouse Wnt-7B: as §1

In the case of Xenopus Frzb, the head defects produced by CSKA-Xwnt-8 plasmid in dorsal blastomeres (64/80 embryos without Xfrzb) (embryos with head defects out of 81) in the experiment with Xwnt-8 (Xenopus) turned out to be 0.

On to B1, for which the binding result in the experiment with HA-tagged murine Wnt-1 [1], in the experiment with HA-tagged mouse Wnt-4, with HA-tagged mouse Wnt-3A, with HA-tagged mouse Wnt-5B, in the experiment with HA-tagged mouse Wnt-7B and in the experiment with HA-tagged mouse Wnt-2 was “binds” throughout. In addition, the binding result in the experiment with HA-tagged mouse Wnt-6 and with HA-tagged mouse Wnt-7A was “binds” each time.

With B2, the binding result in the experiment with bovine Frzb and in the experiment with Xwnt-8^myc was “no binding” throughout.

B3: the binding result with HA-tagged murine Wnt-1 [2] is recorded as “no binding”.
